Laboratory results taken from US8420776 (US Dept. of Health and Human Services, dated 2013).

B1: GST fusion of the entire gp78 cytoplasmic tail (gp78C; residues 309-643 of SEQ ID NO:2) (other)
chain: IRRHKNYLRVVGNMEARFAVATPEELAVNNDDCAICWDSMQAARKLPCGHLFHNSCLRSWLEQDTSCPTCRMSLNIADNNRVREEHQGENLDENLVPVAAAEGRPRLNQHNHFFHFDGSRIASWLPSFSVEVMHTTNILGITQASNSQLNAMAHQIQEMFPQVPYHLVLQDLQLTRSVEITTDNILEGRIQVPFPTQRSDSIRPALNSPVERPSSDQEEGETSAQTERVPLDLSPRLEETLDFGEVEVEPSEVEDFEARGSRFSKSADERQRMLVQRKDELLQQARKRFLNKSSEDDAASESFLPLEGASSDPVTLRRRMLAAAAERRLQKQQTS
notes: also called gp78 cytoplasmic domain; not shown: glutathione S-transferase (GST) fusion partner, N-terminal (pGEX type vector)
B2: yeast Ubc7p, in vitro translated and labelled with 35S-methionine (enzyme, UniProt Q02159 1-165, looked up)
chain: MSKTAQKRLLKELQQLIKDSPPGIVAGPKSENNIFIWDCLIQGPPDTPYADGVFNAKLEFPKDYPLSPPKLTFTPSILHPNIYPNGEVCISILHSPGDDPNMYELAEERWSPVQSVEKILLSVMSMLSEPNIESGANIDACILWRDNRPEFERQVKLSILKSLGF
modifications: 35S-methionine label
B3: Ube2G2/MmUbc7, in vitro translated and labelled with 35S-methionine (enzyme)
chain: MAGTALKRLMAEYKQLTLNPPEGIVAGPMNEENFFEWEALIMGPEDTCFEFGVFPAILSFPLDYPLSPPKMRFTCEMFHPNIYPDGRVCISILHAPGDDPMGYESSAERWSPVQSVEKILLSVVSMLAEPNDESGANVDASKMWRDDREQFYKIAKQIVQKSLGL
modifications: 35S-methionine label
notes: Translated in wheat germ or rabbit reticulocyte lysate; also called in vitro translated Ube2G2

Tests used:
[1] = target: B3; assay: GST pull-down, E2 translated in wheat germ and labelled with 35S-Met, equal counts
[2] = target: B1; assay: GST pull-down, E2 in vitro translated in wheat germ
[3] = target: T1, GST fusion of the cytoplasmic domain of yeast Cue1p (Cue1p 24-203) (yeast, UniProt P38428 24-203); assay: as above
T1 construct: range 24-203; also called GST-Cue1p 24-203; not shown: glutathione S-transferase (GST) fusion partner, N-terminal (pGEX4T-1)
T1 sequence (looked up): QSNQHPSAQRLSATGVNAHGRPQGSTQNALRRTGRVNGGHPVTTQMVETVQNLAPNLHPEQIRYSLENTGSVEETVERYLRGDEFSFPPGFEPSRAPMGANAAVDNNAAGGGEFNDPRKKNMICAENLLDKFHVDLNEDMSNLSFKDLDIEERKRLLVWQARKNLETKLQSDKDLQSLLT

[4] = target: B1; assay: GST pull-down
[5] = target: T2, lysine 48-linked (K48) tetra-ubiquitin (UniProt P0CG48 1-76, four ubiquitins joined by lysine 48 isopeptide links); assay: GST pull-down, anti-ubiquitin immunoblot
T2 construct: the monomer is its first 76 residues

[6] = target: B2; assay: GST pull-down, E2 in vitro translated in wheat germ
[7] = target: UbcH5B, in vitro translated and labelled with 35S-methionine (human, UniProt P62837 1-147); assay: GST pull-down, E2 translated in wheat germ and labelled with 35S-Met, equal counts
Chain of UbcH5B, in vitro translated and labelled with 35S-methionine (P62837 whole entry): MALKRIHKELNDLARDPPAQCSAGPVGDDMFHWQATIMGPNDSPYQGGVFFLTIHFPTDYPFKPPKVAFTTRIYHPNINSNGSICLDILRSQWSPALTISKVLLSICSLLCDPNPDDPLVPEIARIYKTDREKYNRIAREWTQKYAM

[8] = target: T3, Myc-Ube2G2, co-expressed in HEK 293T cells (human (100% identical to mouse MmUbc7), UniProt P60604 1-165); assay: anti-Myc immunoprecipitation from co-transfected cells, anti-gp78 immunoblot
T3 construct: Plasmid described in Tiwari and Weissman, 2001; also called Myc-MmUbc7; myc-tagged MmUbc7/Ube2G2
T3 sequence: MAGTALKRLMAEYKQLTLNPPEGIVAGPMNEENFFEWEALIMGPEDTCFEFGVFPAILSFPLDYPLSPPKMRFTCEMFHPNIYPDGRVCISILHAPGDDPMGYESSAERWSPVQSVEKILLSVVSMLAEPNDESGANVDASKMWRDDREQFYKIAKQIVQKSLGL

[9] = target: T4, N-terminal GFP fusion of gp78 residues 574-611 (GFP-574-611) (human, UniProt P42212 1-238 = GFP); assay: co-immunoprecipitation with GFP fusion from HEK 293T cells
T4 construct: the vector encodes the enhanced variant; also called G2BD

Q: How did the “amount bound (% of input)” value [1] turn out when B1 was run?
A: ~10 % of input

Q: Does B2 bind [2]?
A: no binding

Q: Does B2 bind [3]?
A: binds

Q: Does B3 bind [4]?
A: binds

B4: GST-gp78Cuem2: gp78 C-terminal region with VLQDL to RLQVD mutation of residues 476 to 480 (other)
chain: IRRHKNYLRVVGNMEARFAVATPEELAVNNDDCAICWDSMQAARKLPCGHLFHNSCLRSWLEQDTSCPTCRMSLNIADNNRVREEHQGENLDENLVPVAAAEGRPRLNQHNHFFHFDGSRIASWLPSFSVEVMHTTNILGITQASNSQLNAMAHQIQEMFPQVPYHLRLQVDQLTRSVEITTDNILEGRIQVPFPTQRSDSIRPALNSPVERPSSDQEEGETSAQTERVPLDLSPRLEETLDFGEVEVEPSEVEDFEARGSRFSKSADERQRMLVQRKDELLQQARKRFLNKSSEDDAASESFLPLEGASSDPVTLRRRMLAAAAERRLQKQQTS
notes: not shown: glutathione S-transferase (GST) fusion partner, N-terminal (pGEX type vector)
Q: Does B4 bind [5]?
A: no binding (tested: 1 ug K48 tetra-ubiquitin)

B5: Ube2G1, in vitro translated and labelled with 35S-methionine (enzyme, rat, UniProt P62255 1-170, looked up)
chain: MTELQSALLLRRQLAELNKNPVEGFSAGLIDDNDLYRWEVLIIGPPDTLYEGGVFKAHLTFPKDYPLRPPKMKFITEIWHPNVDKNGDVCISILHEPGEDKYGYEKPEERWLPIHTVETIMISVISMLADPNGDSPANVDAAKEWREDRNGEFKRKVARCVRKSQETAFE
modifications: 35S-methionine label
notes: also called rat Ubc7 (Ube2g1)
Q: Which results are given for B5?
A: binding result [2]: no binding; binding result [3]: no binding

B6: GST-gp78CCue-m1: complete C-terminal region of gp78 with MFP to GGR mutation of residues 467 to 469 (other)
chain: IRRHKNYLRVVGNMEARFAVATPEELAVNNDDCAICWDSMQAARKLPCGHLFHNSCLRSWLEQDTSCPTCRMSLNIADNNRVREEHQGENLDENLVPVAAAEGRPRLNQHNHFFHFDGSRIASWLPSFSVEVMHTTNILGITQASNSQLNAMAHQIQEGGRQVPYHLVLQDLQLTRSVEITTDNILEGRIQVPFPTQRSDSIRPALNSPVERPSSDQEEGETSAQTERVPLDLSPRLEETLDFGEVEVEPSEVEDFEARGSRFSKSADERQRMLVQRKDELLQQARKRFLNKSSEDDAASESFLPLEGASSDPVTLRRRMLAAAAERRLQKQQTS
notes: as for B4
Q: Does B6 bind [5]?
A: no binding (tested: 1 ug K48 tetra-ubiquitin)

B7: GST-gp78CCue-m1, 2: gp78 C-terminal region with both sets of Cue domain mutations (other)
chain: IRRHKNYLRVVGNMEARFAVATPEELAVNNDDCAICWDSMQAARKLPCGHLFHNSCLRSWLEQDTSCPTCRMSLNIADNNRVREEHQGENLDENLVPVAAAEGRPRLNQHNHFFHFDGSRIASWLPSFSVEVMHTTNILGITQASNSQLNAMAHQIQEGGRQVPYHLRLQVDQLTRSVEITTDNILEGRIQVPFPTQRSDSIRPALNSPVERPSSDQEEGETSAQTERVPLDLSPRLEETLDFGEVEVEPSEVEDFEARGSRFSKSADERQRMLVQRKDELLQQARKRFLNKSSEDDAASESFLPLEGASSDPVTLRRRMLAAAAERRLQKQQTS
notes: as for B4
Q: Does B7 bind [5]?
A: no binding (tested: 1 ug K48 tetra-ubiquitin)

B8: GST fusion of the gp78 cytoplasmic tail beginning after the RING finger (residues 429-643 of SEQ ID NO:2) (other)
chain: IASWLPSFSVEVMHTTNILGITQASNSQLNAMAHQIQEMFPQVPYHLVLQDLQLTRSVEITTDNILEGRIQVPFPTQRSDSIRPALNSPVERPSSDQEEGETSAQTERVPLDLSPRLEETLDFGEVEVEPSEVEDFEARGSRFSKSADERQRMLVQRKDELLQQARKRFLNKSSEDDAASESFLPLEGASSDPVTLRRRMLAAAAERRLQKQQTS
notes: also called gp78CΔR; gp78CAR; not shown: GST carrier and the pGEX4T-1 linker (N-terminal)
Q: Does B8 bind [6]?
A: no binding

Q: And the “amount bound (% of input)” value [1]?
A: ~10 % of input

B9: GST-AO7 (92 to 259), the RING finger and surrounding regions of the E3 AO7 (other)
chain: QIHKISQALGHVAKEGLGTAMLYELIEKGKEILTDNNIPHGQCVICLYGFQEKEAFTKTPCYHYFHCHCLARYIQHMEQELTTQEQEQERQHVVTKQKAVGVQCPVCREPLVYDLASLKAAPEPQQPMELYQPSAESLRQQEELKLLYQRQQEKGGIIDLEAERNRYF
notes: range 92-259; also called A07; not shown: glutathione S-transferase (GST) fusion partner
Q: B9 was tested. Which “amount bound (% of input)” value [7] did it give?
A: ~10 % of input

B10: full length gp78 with both Cue domain mutations (gp78Cue-m1, 2) (enzyme)
chain: MPLLFLERFPWPSLRTYTGLSGLALLGTIISAYRALSQPEAGPGEPDQLTASLQPEPPAPARPSAGGPRARDVAQYLLSDSLFVWVLVNTACCVLMLVAKLIQCIVFGPLRVSERQHLKDKFWNFIFYKFIFIFGVLNVQTVEEVVMWCLWFAGLVFLHLMVQLCKDRFEYLSFSPTTPMSSHGRVLSLLVAMLLSCCGLAAVCSITGYTHGMHTLAFMAAESLLVTVRTAHVILRYVIHLWDLNHEGTWEGKGTYVYYTDFVMELTLLSLDLMHHIHMLLFGNIWLSMASLVIFMQLRYLFHEVQRRIRRHKNYLRVVGNMEARFAVATPEELAVNNDDCAICWDSMQAARKLPCGHLFHNSCLRSWLEQDTSCPTCRMSLNIADNNRVREEHQGENLDENLVPVAAAEGRPRLNQHNHFFHFDGSRIASWLPSFSVEVMHTTNILGITQASNSQLNAMAHQIQEGGRQVPYHLRLQVDQLTRSVEITTDNILEGRIQVPFPTQRSDSIRPALNSPVERPSSDQEEGETSAQTERVPLDLSPRLEETLDFGEVEVEPSEVEDFEARGSRFSKSADERQRMLVQRKDELLQQARKRFLNKSSEDDAASESFLPLEGASSDPVTLRRRMLAAAAERRLQKQQTS
notes: Full length, expressed in cells; also called Cue12M
Q: Does B10 bind [8]?
A: binds

B11: full length gp78 with the E2-m2 mutation (gp78E2-m2) (enzyme)
chain: MPLLFLERFPWPSLRTYTGLSGLALLGTIISAYRALSQPEAGPGEPDQLTASLQPEPPAPARPSAGGPRARDVAQYLLSDSLFVWVLVNTACCVLMLVAKLIQCIVFGPLRVSERQHLKDKFWNFIFYKFIFIFGVLNVQTVEEVVMWCLWFAGLVFLHLMVQLCKDRFEYLSFSPTTPMSSHGRVLSLLVAMLLSCCGLAAVCSITGYTHGMHTLAFMAAESLLVTVRTAHVILRYVIHLWDLNHEGTWEGKGTYVYYTDFVMELTLLSLDLMHHIHMLLFGNIWLSMASLVIFMQLRYLFHEVQRRIRRHKNYLRVVGNMEARFAVATPEELAVNNDDCAICWDSMQAARKLPCGHLFHNSCLRSWLEQDTSCPTCRMSLNIADNNRVREEHQGENLDENLVPVAAAEGRPRLNQHNHFFHFDGSRIASWLPSFSVEVMHTTNILGITQASNSQLNAMAHQIQEMFPQVPYHLVLQDLQLTRSVEITTDNILEGRIQVPFPTQRSDSIRPALNSPVERPSSDQEEGETSAQTERVPLDLSPRLEETLDFGEVEVEPSEVEDFEARGSRFSKSADERAAAGGGRKDELLQQARKRFLNKSSEDDAASESFLPLEGASSDPVTLRRRMLAAAAERRLQKQQTS
notes: Full length, expressed in cells; also called ΔB in the context of the full length gp78
Q: Does B11 bind [8]?
A: no binding

B12: endogenous Ube2g1 of HEK 293T cells (enzyme, human, UniProt P62253 2-170, looked up)
chain: TELQSALLLRRQLAELNKNPVEGFSAGLIDDNDLYRWEVLIIGPPDTLYEGGVFKAHLTFPKDYPLRPPKMKFITEIWHPNVDKNGDVCISILHEPGEDKYGYEKPEERWLPIHTVETIMISVISMLADPNGDSPANVDAAKEWREDRNGEFKRKVARCVRKSQETAFE
Q: Does B12 bind [9]?
A: no binding
